Assay results from paper PMC10810954, “Structural and functional insights into the lipid regulation of human anion exchanger 2” (Nature Communications, 2024).
Changes are numbered by the printed parent chain. Names and notes keep the numbering of the source.

B1: Full-length canonical human AE2 (isoform 1), wild type (natural protein, UniProt P04920-1 1-1241, looked up)
chain: MSSAPRRPAKGADSFCTPEPESLGPGTPGFPEQEEDELHRTLGVERFEEILQEAGSRGGEEPGRSYGEEDFEYHRQSSHHIHHPLSTHLPPDARRRKTPQGPGRKPRRRPGASPTGETPTIEEGEEDEDEASEAEGARALTQPSPVSTPSSVQFFLQEDDSADRKAERTSPSSPAPLPHQEATPRASKGAQAGTQVEEAEAEAVAVASGTAGGDDGGASGRPLPKAQPGHRSYNLQERRRIGSMTGAEQALLPRVPTDEIEAQTLATADLDLMKSHRFEDVPGVRRHLVRKNAKGSTQSGREGREPGPTPRARPRAPHKPHEVFVELNELLLDKNQEPQWRETARWIKFEEDVEEETERWGKPHVASLSFRSLLELRRTLAHGAVLLDLDQQTLPGVAHQVVEQMVISDQIKAEDRANVLRALLLKHSHPSDEKDFSFPRNISAGSLGSLLGHHHGQGAESDPHVTEPLMGGVPETRLEVERERELPPPAPPAGITRSKSKHELKLLEKIPENAEATVVLVGCVEFLSRPTMAFVRLREAVELDAVLEVPVPVRFLFLLLGPSSANMDYHEIGRSISTLMSDKQFHEAAYLADEREDLLTAINAFLDCSVVLPPSEVQGEELLRSVAHFQRQMLKKREEQGRLLPTGAGLEPKSAQDKALLQMVEAAGAAEDDPLRRTGRPFGGLIRDVRRRYPHYLSDFRDALDPQCLAAVIFIYFAALSPAITFGGLLGEKTQDLIGVSELIMSTALQGVVFCLLGAQPLLVIGFSGPLLVFEEAFFSFCSSNHLEYLVGRVWIGFWLVFLALLMVALEGSFLVRFVSRFTQEIFAFLISLIFIYETFYKLVKIFQEHPLHGCSASNSSEVDGGENMTWAGARPTLGPGNRSLAGQSGQGKPRGQPNTALLSLVLMAGTFFIAFFLRKFKNSRFFPGRIRRVIGDFGVPIAILIMVLVDYSIEDTYTQKLSVPSGFSVTAPEKRGWVINPLGEKSPFPVWMMVASLLPAILVFILIFMETQITTLIISKKERMLQKGSGFHLDLLLIVAMGGICALFGLPWLAAATVRSVTHANALTVMSKAVAPGDKPKIQEVKEQRVTGLLVALLVGLSIVIGDLLRQIPLAVLFGIFLYMGVTSLNGIQFYERLHLLLMPPKHHPDVTYVKKVRTLRMHLFTALQLLCLALLWAVMSTAASLAFPFILILTVPLRMVVLTRIFTDREMKCLDANEAEPVFDEREGVDEYNEMPMPV
notes: Anion exchanger 2 (AE2, SLC4A2), human, isoform a, UniProtKB P04920-1, full length; Full-length protein was purified, but only the TMDs are resolved in the map; the NTD, parts of EL3, EL4, EL6 and the C-terminus are not modelled; also called Anion exchanger 2; hAE2; source: HEK293F (FreeStyle 293 F) cells, BacMam system, purified (LMNG/CHS extraction, Ni-NTA, TEV, Superose 6 in GDN); not shown: …
B2: Full-length human AE2 with R932A/K1147A/H1148A mutations (natural protein, UniProt P04920-1 1-1241, looked up)
chain: B1 chain with R932A, K1147A, H1148A
notes: No PIP2 in the map; NTD resolved; also called AE2_(IF/REST); mutant AE2; not shown: GFP, C-terminal, cleaved; His tag, C-terminal, cleaved

Molecular target: the molecule itself
Assay: cryo-EM structure; purified AE2 in 50 μM GDN, 150 mM NaCl, 20 mM HEPES pH 7.4; Titan Krios 300 kV; homodimer

Protein	stoichiometry N
B1	2
B2	2
